Measured values as given in paper doi:10.1101/2022.09.22.509106 (bioRxiv, 2022).
Each block holds one binder with its values, some of them ahead of it.

Columns and labels:
[1] = biological target: T1, purified human C1q protein (human, UniProt P02745 23-245; P02746 28-253; P02747 29-245); experiment: immunostaining of cells or tissue
[2] = biological target: the molecule itself; experiment: negative staining electron microscopy
[3] = biological target: T1, purified human C1q protein; experiment: pull-down

T1 sequence (P02745 23-245, chain 1 of 3): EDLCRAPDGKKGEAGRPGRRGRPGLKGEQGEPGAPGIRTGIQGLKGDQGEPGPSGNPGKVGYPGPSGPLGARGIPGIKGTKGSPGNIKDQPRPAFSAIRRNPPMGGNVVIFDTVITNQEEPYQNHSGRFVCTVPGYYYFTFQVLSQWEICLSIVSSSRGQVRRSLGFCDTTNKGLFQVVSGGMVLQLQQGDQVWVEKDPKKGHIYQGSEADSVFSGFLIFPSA
T1 sequence (P02746 28-253, chain 2 of 3): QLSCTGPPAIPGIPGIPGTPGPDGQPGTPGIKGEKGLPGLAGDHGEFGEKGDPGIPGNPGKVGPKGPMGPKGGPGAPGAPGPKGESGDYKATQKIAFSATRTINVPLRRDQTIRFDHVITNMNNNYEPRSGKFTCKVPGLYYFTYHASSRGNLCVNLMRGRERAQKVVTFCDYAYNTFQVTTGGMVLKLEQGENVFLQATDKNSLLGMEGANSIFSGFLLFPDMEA
T1 sequence (P02747 29-245, chain 3 of 3): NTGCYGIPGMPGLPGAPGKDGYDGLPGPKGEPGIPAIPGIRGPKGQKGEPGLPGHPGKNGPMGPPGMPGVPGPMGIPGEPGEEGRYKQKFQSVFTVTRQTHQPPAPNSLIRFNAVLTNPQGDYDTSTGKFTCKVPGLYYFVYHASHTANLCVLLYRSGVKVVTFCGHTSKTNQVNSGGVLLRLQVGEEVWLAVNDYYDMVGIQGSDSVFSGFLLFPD

Kd [1]: ~2 nM
B1: Nptxr and Nptx2 co-expressed on a stable tetracycline-inducible CHO cell-line (Nptxr/x2) (complex, human)
chain 1: MKFLAVLLAAGMLAFLGAVICIIASVPLAASPARALPGGADNASVASGAAASPGPQRSLSALHGAGGSAGPPALPGAPAASAHPLPPGPLFSRFLCTPLAAACPSGAQQGDAAGAAPGEREELLLLQSTAEQLRQTALQQEARIRADQDTIRELTGKLGRCESGLPRGLQGAGPRRDTMADGPWDSPALILELEDAVRALRDRIDRLEQELPARVNLSAAPAPVSAVPTGLHSKMDQLEGQLLAQVLALEKERVALSHSSRRQRQEVEKELDVLQGRVAELEHGSSAYSPPDAFKISIPIRNNYMYARVRKALPELYAFTACMWLRSRSSGTGQGTPFSYSVPGQANEIVLLEAGHEPMELLINDKVAQLPLSLKDNGWHHICIAWTTRDGLWSAYQDGELQGSGENLAAWHPIKPHGILILGQEQDTLGGRFDATQAFVGDIAQFNLWDHALTPAQVLGIANCTAPLLGNVLPWEDKLVEAFGGATKAAFDVCKGRAKA
chain 2: GAQDSPAPGSRFVCTALPPEAVHAGCPLPAMPMQGGAQSPEEELRAAVLQLRETVVQQKETLGAQREAIRELTGKLARCEGLAGGKARGAGATGKDTMGDLPRDPGHVVEQLSRSLQTLKDRLESLEHQLRANVSNAGLPGDFREVLQQRLGELERQLLRKVAELEDEKSLLHNETSAHRQKTESTLNALLQRVTELERGNSAFKSPDAFKVSLPLRTNYLYGKIKKTLPELYAFTICLWLRSSASPGIGTPFSYAVPGQANEIVLIEWGNNPIELLINDKVAQLPLFVSDGKWHHICVTWTTRDGMWEAFQDGEKLGTGENLAPWHPIKPGGVLILGQEQDTVGGRFDATQAFVGELSQFNIWDRVLRAQEIVNIANCSTNMPGNIIPWVDNNVDVFGGASKWPVETCEERLLDL

B2: neuronal pentraxin 2 (Nptx2), purified recombinant, His-tagged (natural protein, UniProt P47972 16-431, looked up)
chain: GAQDSPAPGSRFVCTALPPEAVHAGCPLPAMPMQGGAQSPEEELRAAVLQLRETVVQQKETLGAQREAIRELTGKLARCEGLAGGKARGAGATGKDTMGDLPRDPGHVVEQLSRSLQTLKDRLESLEHQLRANVSNAGLPGDFREVLQQRLGELERQLLRKVAELEDEKSLLHNETSAHRQKTESTLNALLQRVTELERGNSAFKSPDAFKVSLPLRTNYLYGKIKKTLPELYAFTICLWLRSSASPGIGTPFSYAVPGQANEIVLIEWGNNPIELLINDKVAQLPLFVSDGKWHHICVTWTTRDGMWEAFQDGEKLGTGENLAPWHPIKPGGVLILGQEQDTVGGRFDATQAFVGELSQFNIWDRVLRAQEIVNIANCSTNMPGNIIPWVDNNVDVFGGASKWPVETCEERLLDL
stoichiometry N [2]: 6

binding result [3]: binds
B3: Rat Nptx2 pentraxin domain (X2-PD) (domain or fragment, UniProt P97738 224-425, looked up)
chain: DAFKVSLPLRTNYLYGKIKKTLPELYAFTICLWLRSSASPGIGTPFSYAVPGQANEIVLIEWGNNPIELLINDKVAQLPLFVSDGKWHHICITWTTRDGMWEAFQDGEKLGTGENLAPWHPIKPGGVLILGQEQDTVGGRFDATQAFVGELSQFNIWDRVLRAQEIINIANCSTNMPGNIIPWVDNNVDVFGGASKWPVETC
